Experiments:
[1] = target: chorionic gonadotrophin (CG) receptor, on MDA-MB-435S.luc cells (human) (UniProt P22888); assay: cell-based or functional assay
[2] = system: AN3-CA; assay: Cytotoxicity in AN3-CA endometrial cancer cells; format: cell-based; details: AN3-CA endometrial cancer cell line; read-out: IC50 in Human Cancer Cell Lines
Procedure: (§1) MDA-MB-435S.luc cells were grown in Leibovitz's L 15 medium, 10% fetal bovine serum, 0.01 mg/ml bovine insulin, 100 IU/ml penicillin, 100 microg/ml streptomycin. The cells were cultured in tight closed flasks. The incubations were conducted using 96 well plates at 10,000 cells per well. Cells were typically seeded into 96 well plates and media was replaced after 48 hours of incubation. Each assay was conducted at increasing concentrations of 0, 0.001, 0.01, 0.05, 0.1, 0.5, 1, 2, 5, 10 and 100 micromolar doses of lytic peptide-binding domain conjugate. Each lytic peptide-binding domain conjugate provided in lyophilized form and was freshly dissolved in saline and added to cells. The duration of incubation was typically 24 h, and cell viability assays were conducted using formazan conversion assays (MTT assay). Controls contained saline or 0.1% triton as reference for 0 and 100% cell death, respectively.
(§2) To ascertain the IC50 of various fusion constructs on different human cancer cell lines compared to cisplatinum, IC50 of fusion constructs were evaluated as in Table 3.

[3] = system: OVCAR-3; assay: Cytotoxicity in OVCAR-3 ovarian cancer cells; format: cell-based; details: OVCAR-3 ovarian cancer cell line; read-out: IC50 in Human Cancer Cell Lines
Procedure: as §1, §2

[4] = system: SKOV-3; assay: Cytotoxicity in SKOV-3 ovarian cancer cells; format: cell-based; details: SKOV-3 ovarian cancer cell line; read-out: IC50 in Human Cancer Cell Lines
Procedure: as §1, §2

[5] = system: LNCaP; assay: Cytotoxicity in LNCaP prostate cancer cells; format: cell-based; details: LNCaP prostate cancer cell line; read-out: IC50 in Human Cancer Cell Lines
Procedure: as §1, §2

[6] = system: OVCAR-3 xenograft; assay: OVCAR-3 ovarian cancer xenograft; format: in vivo, Nu/Nu mice; details: for tumor volume: OVCAR-3 xenograft, CLIP71 2 mg/kg, cisplatinum 10 mg/kg
Procedure: In brief, Nu/Nu female mice, inbred strain, age 5 weeks (Harlan-Sprague Dawley) were injected subcutaneously with a NIH:OVCAR-3 cells/Matrigel suspension (4.6×10^6 cells/mouse). Treatment was started on day 33 after tumor cell injection when the tumors were established and continued on days 41 and 47. The doses for the 3 weekly injections were 0.02, 0.2 and 2 mg/kg body weight, given as a single bolus intravenous injection via lateral tail vein administered once a week for three weeks on days 33, 41 and 47. Necropsies were conducted on day 52. Data are presented as mean […]SEM. Arrows show dosing.
A group of 9 tumor bearing mice was sacrificed on day 33 and served as baseline group. All mice were necropsied 51-52 days after tumor cell injection. Tumor volumes and bodyweights were recorded twice weekly during the study, as well as overall veterinarian examination of mice was conducted.
Primary tumors, liver, kidney, pancreas, heart, lung, and spleen were collected, fixed in formalin and prepared for histological evaluation. Tumor weights were measured at necropsy, part of the tumors were frozen at −80° C. for LH/CG and LHRH receptor assay determination.
As a biomarker for drug activity, CA 125 was determined in serum, collected from each individual mouse at necropsy using a Enzyme Linked Immunoassay for quantitative determination of ovarian cancer antigen CA125 (Assay kit Genway, Biotech, Inc. San Diego, CA, Catalog #40-052-115009, #BC-1013 according to the manufacturer).
LHRH receptor levels were assessed from formalin fixed tumors. Quantitative immunoperoxidase image analysis was conducted with the Ventana Image Analysis System (VIAS) adjunctive computer assisted image analysis system functionally connected to an interactive microscope (Axio Imager). The quantitative analysis was conducted with the program for quantification of Her2/neu receptor that included morphometric and colorimetric analysis. Receptor status results were reported as percentage of cells showing positive staining of the LHRH receptors under the following criteria: 0 non-immunoreactive, 1+: 1-25% positive, 2+: 26-50% positive, 3+: 51-75% positive cells.

[7] = system: MDA-MB-435S cells; details: reported; cited from earlier work
[8] = target: T1, luteinizing hormone-releasing hormone (LHRH) receptor, on human cancer cell lines (human) (UniProt P30968); assay: cell-based or functional assay
T1 sequence (looked up): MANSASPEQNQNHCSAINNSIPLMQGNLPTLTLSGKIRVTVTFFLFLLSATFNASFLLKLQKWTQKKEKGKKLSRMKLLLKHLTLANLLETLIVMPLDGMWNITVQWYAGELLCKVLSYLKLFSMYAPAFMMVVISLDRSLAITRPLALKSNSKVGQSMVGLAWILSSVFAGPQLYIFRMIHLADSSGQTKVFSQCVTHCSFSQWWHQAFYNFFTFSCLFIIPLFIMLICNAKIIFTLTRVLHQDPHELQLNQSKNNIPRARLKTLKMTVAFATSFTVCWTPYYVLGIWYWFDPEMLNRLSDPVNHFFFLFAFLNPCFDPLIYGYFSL

[9] = target: T2, luteinizing hormone-releasing hormone receptor (LHRH-R), on murine cancer cell lines (mouse) (UniProt Q01776); assay: cell-based or functional assay
T2 sequence (looked up): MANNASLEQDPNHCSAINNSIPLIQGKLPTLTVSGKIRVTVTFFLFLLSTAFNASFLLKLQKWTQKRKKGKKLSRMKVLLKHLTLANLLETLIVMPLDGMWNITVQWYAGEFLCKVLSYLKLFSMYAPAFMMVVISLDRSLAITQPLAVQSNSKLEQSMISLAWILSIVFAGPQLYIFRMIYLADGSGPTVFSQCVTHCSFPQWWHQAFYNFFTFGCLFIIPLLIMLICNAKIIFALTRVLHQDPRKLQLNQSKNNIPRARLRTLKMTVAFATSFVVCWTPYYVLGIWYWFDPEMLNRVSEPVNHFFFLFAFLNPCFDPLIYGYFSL

Phor21-βCG-ala (323033) (peptide)
IC50 of cytotoxicity, MDA-MB-435S.luc cells (carry CG receptors) [1]: 2.3 µM

N.N.[Cl][Pt][Cl] [Cisplatinum, reference compound]
IC50 [2]: 11.8 ± 0.16 µM
IC50 [3]: 184 µM
IC50 [4]: 321 ± 10 µM
IC50 [5]: 19.9 ± 1.4 µM
tumor weights ([6]; OVCAR-3 xenograft at necropsy): not effective in reducing tumor weights
tumor volume [6]: no reduction in tumor volume
tumor volume ([6]; listed as cisplatinum): tumor growth was observed

COc1cccc2c1C(=O)c1c(O)c3c(c(O)c1C2=O)C[C@@](O)(C(=O)CO)C[C@@H]3O[C@H]1C[C@H](N)[C@H](O)[C@H](C)O1 [doxorubicin]
time to destroy human melanoma cells in vitro [7]: 4 h

Phor18-LHRH (338613) (peptide)
IC50 of cytotoxicity (MTT), MDA-MB-435S cells, 0.5 hour [8]: 1.2 µM
IC50 of cytotoxicity (MTT), MDA-MB-435S cells, 1 hour [8]: 0.6 µM
IC50 of cytotoxicity (MTT), OVCAR-3 cells, increasing incubation time, value 1 of 7 [8]: 6.7 µM
IC50 of cytotoxicity (MTT), OVCAR-3 cells, increasing incubation time, value 2 of 7 [8]: 5.6 µM
IC50 of cytotoxicity (MTT), OVCAR-3 cells, increasing incubation time, value 3 of 7 [8]: 5.3 µM
IC50 of cytotoxicity (MTT), OVCAR-3 cells, increasing incubation time, value 4 of 7 [8]: 1.6 µM
IC50 of cytotoxicity (MTT), OVCAR-3 cells, increasing incubation time, value 5 of 7 [8]: 1.5 µM
IC50 of cytotoxicity (MTT), OVCAR-3 cells, increasing incubation time, value 6 of 7 [8]: 0.5 µM
IC50 of cytotoxicity (MTT), OVCAR-3 cells, increasing incubation time, value 7 of 7 [8]: 0.5 µM
IC50 of cell viability, murine ovarian cancer cell lines, 72 hours [9]: 1 to 1.3 µM
IC50 of cytotoxicity (CellTiter Glo), EMT-6 cells, 4 h [9]: 5.8 µM
IC50 of cytotoxicity (CellTiter Glo), EMT-6 cells, 8 h [9]: 5.7 µM
IC50 of cytotoxicity (CellTiter-Glo), 2C12 cells, 24 h [9]: 1.02 µM
IC50 of cytotoxicity (CellTiter-Glo), ID8 cells, 24 h [9]: 1.37 µM
IC50 of cytotoxicity (CellTiter-Glo), IF5 cells, 24 h [9]: 1.01 µM
IC50 of cytotoxicity (CellTiter-Glo), IG10 cells, 24 h [9]: 1.03 µM
IC50 of cytotoxicity (CellTiter-Glo), cell line printed as 242, 24 h [9]: 1.38 µM
